Target: HA1-trimer (influenza A virus H1N1 A/California/07/2009)
Test: AUC

Substance: HA1-trimer
- stoichiometry N: 3
